# Test system: MS2 coat protein
# Experiment: apparent KD of MS2 coat protein; designed switch direction (-1 OFF switch, 1 ON switch): 1; higher = weaker reporter binding
# Outline: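 Normalised cluster fluorescence was curve-fitted, and each design's median over clusters is its apparent KD. Before this, SNAP-549-labelled MS2 coat protein was titrated from 0.7 or 1.5 nM, doubling to 3 µM, over RNA switches transcribed on Illumina chips by stalled E. coli RNA polymerase. Titrations had no input, 200 uM small-molecule ligand, or an oligonucleotide input, and steps lasted 0.8–1.5 h (lowest) to 10–20 min (highest).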
# [1] = input ligand: microRNA oligo, concentration not stated
# [2] = Eterna round: R95, input ligand: FMN 200 uM
# [3] = Eterna round: R95, input ligand: microRNA oligo, concentration not stated
# [4] = Eterna round: R95, input ligand: none
Sequence,apparent KD of MS2 coat protein (input ligand: FMN 200 uM) [nM],apparent KD of MS2 coat protein [1] [nM],apparent KD of MS2 coat protein (input ligand: none) [nM],apparent KD of MS2 coat protein [2] [nM],apparent KD of MS2 coat protein [3] [nM],apparent KD of MS2 coat protein [4] [nM]
"AUGAUCUACCGAAAGGUAGAUCGGCUUGUACAUGAGGAUCACCCAUGUAUGUACAAGCUUUUUGCUCGUCUUAUAAA [Modxample - Jieux - Sensor for bsa-mir-208a] (Eterna round: R96, puzzle: Sensor for hsa-mir-208a)",279,16.6,282,,,
"AUGGUCAAGUGUGAGGAUAUCCAUGCUCCCACAUGAGGAUCACCCAUGUCUUAAAGGGCGUAAAGGGAGAAGGUACGAACGCCAC [Edatxein] (Eterna round: R96, puzzle: Same State 2)",73.1,49.2,80.6,,,
"GGUAAACAUGAGGAUCACCCAUGUAAUAAUAUGGGAGGAUAUGGGAAUUAAUUAAUUAAACCAGAAGGCCUAAUUG [Mat - Same State 1 - D85] (Eterna round: R96, puzzle: Same State 1)",32,104,135,,,
"GGUAGGUUACUACCAUACAUGAGGAUCACCCAUGUAAAUGGGAAGGAUAUGGUACCUAUUUGGUACCAGAAGGUCCAAAUAAUU [Mat - Same State NG 3 - JL Mod - D96] (Eterna round: R96, puzzle: Same State NG 3)",156,645,1170,,,
"GACAGACAUGAGGAUCACCCAUGUACAAACGUACAAGGAUAUGUGUGGAAACCGUACUAUACAGAAGGUGUCUGUC [SS1 - 90] (Eterna round: R96, puzzle: Same State 1)",,71.3,,,,
GGAGCCGGUACUGAGGAUAUUCAUAUUAAAACAUGAGGAUCACCCAUGUGGGCCAGAAGGCCUUGGGAGAAGGCAGAUCGGCUCC [Biseusra - 3] (puzzle: Same State 2),,,,19,93.3,145
ACCCAAGGUAUAUGGGAACAAGCUUUUUAACAUGAGGAUCACCCAUGUACUCGUCUUAUAAGCAGUCGAAAGACUGC [Sensor 100 - 6] (puzzle: Sensor for hsa-mir-208a),,,,619,16.1,831
UAUGCACAUGAGGAUCACCCAUGUGGUAAGACCACAGGAUAUCACCUCGGACGUGCGAUGUGAGAAGGGUGAUGGU [Same State 1 - Mod of Vinnie Anrelari v.3] (puzzle: Same State 1),,,,491,289,379
AACAUUCUAUCUCAGGAUAUCAUGUCAAAGACAUGAGGAUCACCCAUGUACCAGGAAACUGGUUAUGAGAAGGGAGAUAGAAUGA [Mat - Same State 2 - Mod - D45] (puzzle: Same State 2),,,,114,89.4,162
"UGUUAGUAGACAGGAUAUUGAAUGUUAAGUAUUAACAUGAGGAUCACCCAUGUAUUUGAUUGGUACAAGAAGGGUCAUGUUUGU [JR_SSNG2_Sub014] (Eterna round: R96, puzzle: Same State NG 2)",,290,,,,
"AAUUUAAUACAUGAGGAUCACCCAUGUAAUACUUGUAAGAUCAAGGAUAUCAGCUCGAUUAGAGCUGAGAAGGUGAUCACAUGU [SSNG3/19-D2] (Eterna round: R96, puzzle: Same State NG 3)",,21.6,,,,
"AAUUGUUCCUGAGGAUAUCAGUAGUUUGCUCUUUGAGAAGGCAGUACAUGAGGAUCACCCAUGUUGUGGUUUGAUAGAAUGAUA [JR_SSNG1_Sub006] (Eterna round: R96, puzzle: Same State NG 1)",131,103,137,,,
"AUUUUUAAUGCAGGAUAUGAUCAACAUGAGGAUCACCCAUGUGGUGUUGUGAGUAAGGAGAGUGAUCAGAAGGGCAUCUUUUCA [SS-NG2-LRO03] (Eterna round: R96, puzzle: Same State NG 2)",1310,372,758,,,
AUAAAACAUGAGGAUCACCCAUGUCAACAAAGUCGAGGAUAUGGGUAAAUAAAAUAAGAACCAGAAGGCGAAUAAU [salish99_ss1_r3_028] (puzzle: Same State 1),,,,83.5,283,163
"GGAUCAUGACGAGGAUAUGGUACAUGAGGAUCACCCAUGUAUGUACCAUAACGCGUACGACGAAACCAGAAGGCGUCGUGGUCG [Mat - Same State NG 2 - JL mod - D40] (Eterna round: R96, puzzle: Same State NG 2)",9.88,21,28,,,
AGUCCAGCCUGAGCUGGACAAAAGCAUGUACAUGAGGAUCACCCAUGUCAUGUACAAGCUUUUUGCUCGUAUUAAAA [Mat - hsa-mir-208a - Mod of JL - D9] (puzzle: Sensor for hsa-mir-208a),,,,362,15.4,574

Sequence,apparent KD of MS2 coat protein (input ligand: FMN 200 uM) [nM],apparent KD of MS2 coat protein [1] [nM],apparent KD of MS2 coat protein (input ligand: none) [nM],apparent KD of MS2 coat protein [2] [nM],apparent KD of MS2 coat protein [3] [nM],apparent KD of MS2 coat protein [4] [nM]
"GAGAGAUGGCGAGGAUAUGCGGUGAUAAUGAUGGCAGAAGGCGCUGACAUGAGGAUCACCCAUGUGGGAAUAAUCCAGAGAGAG [Parity 17 - Jieux - Same State NG 1] (Eterna round: R96, puzzle: Same State NG 1)",279,564,683,,,
"AGCGAGAUAGGCGAGGAUAUGCUUUUUUGCACAUGAGGAUCACCCAUGUCUUUGUUUUUUGUUUUGCAGAAGGCGCAUUCUCUUU [ak unbound state multiloop] (Eterna round: R96, puzzle: Same State 2)",46.1,15.8,26.1,,,
"AUAUAACAUGAGGAUCACCCAUGUCACUAAAGUCGAGGAUAUGGGCAGGUUAUAUCCGAACCAGAAGGCGAAUUAU [SS1 Teenbexe 6] (Eterna round: R96, puzzle: Same State 1)",41,221,208,,,
GGUCCAGCCUGAGCUGGACCACAGCAUGUACAUGAGGAUCACCCAUGUCAUGUACAUGCUUUUUGUUUGUCUUAAAA [Sensorship 11 - Jieux - Sensor for hsa-mir-208a] (puzzle: Sensor for hsa-mir-208a),,,,72.2,32.7,47.3
"UGUUGUAUUACAGGAUAUCUAGUAUUUUUAGUUAGAGAAGGGUAUUCACAUGAGGAUCACCCAUGUAUAUACGAGGAAGUUGUG [JMF's solution 49] (Eterna round: R96, puzzle: Same State NG 1)",43.7,36.9,45.7,,,
"ACAUGAGAGUCAGGAUAUAUUGUACCUACAUGUGACAUGAGGAUCACCCAUGUGGUAAGUAUGACAUAGAAGGGAUAGAUAUGU [Equivalance 85 - Jieux - Same State NG 2] (Eterna round: R96, puzzle: Same State NG 2)",62.7,60.4,79.2,,,
"CAUCUAUACGUAGGAUAUGUAGGAUAUUCCUACAUGAGGAUCACCCAUGUUCGCAUGGAAGAAGGACAGAAGGACGAACUACUU [pwkr ssNG2 2FMN + 1F5.7] (Eterna round: R96, puzzle: Same State NG 2)",320,144,21.5,,,
"AUAUGAGAAGCAGGAUAUGUGAAAAAAAAACAUACAGAAGGGUUUAUGGGACAACAUGAGGAUCACCCAUGUUCUCUGUGAUGA [AK SSNG1-V2-1.1] (Eterna round: R96, puzzle: Same State NG 1)",,59.2,,,,
"GGAAAGAGGUUAGGAUAUGCAUGUCUGGGACAUGAGGAUCACCCAUGUAAUAGAAGAAAUCUACAGUAGAAGGGACAAGGAAGG [AK SSNG2-V2-7] (Eterna round: R96, puzzle: Same State NG 2)",89.9,62.7,75.2,,,
"CGAACACGUUGAGGAUAUGCAGAGGAUCACCCUGUAGAAGGCAACAGAUGAGGAUAUGCAGAGGAUCACCCUGUAGAAGGCAAC [pwkr ssNG DX.5] (Eterna round: R96, puzzle: Same State NG 1)",54.3,68.6,116,,,
"AUAAAUAACACAGGAUAUCCACACGAAUAGUGCGGAGAAGGGUGAACGUCGGCUCUCGCCAACAUGAGGAUCACCCAUGUAAAA [Tediissobe] (Eterna round: R96, puzzle: Same State NG 1)",64.4,12.7,31.5,,,
"UGACACACGGCAGGAUAUGCUUAGCAAAGCUAAGCAGAAGGGCCUCAUGUCGUGGAAACGUGACAUGAGGAUCACCCAUGUUGC [Omei SS(NG)1 Cv2] (Eterna round: R96, puzzle: Same State NG 1)",306,46.8,57.9,,,
"UGUUGUAUUACAGGAUAUCUAUUAGUUUAAUUUAGAGAAGGGUAUUCACAUGAGGAUCACCCAUGUAUAUACGAGGAAGUUGUG [JMF's solution 93] (Eterna round: R96, puzzle: Same State NG 1)",,39.5,,,,
"GUUAUUAAUGCAGGAUAUGAUUAACAUGAGGAUCACCCAUGUGGUGUUGUGAGUAAGGAGAGUGAUCAGAAGGGCAUUUUUUUU [JMF's solution 40] (Eterna round: R96, puzzle: Same State NG 2)",890,815,764,,,
"AUUAGACAUGAGGAUCACCCAUGUAGGCAGUCAUGAGGAUAUGGACAAGGUGCUCAAGGUCCAGAAGGCAUACGCC [Maxeus] (Eterna round: R96, puzzle: Same State 1)",12.2,28.3,28,,,

# — the supplement of paper PMC9170038
